Test system: intracellular proteome of ENR+CD and ENR organoids
Assay: LC-MS/MS TMT proteomics of ENR+CD versus ENR organoids
Assay type: cell-based, C57BL/6 mice
Conditions: for Average logFC: ENR+CD versus ENR organoids, sample pairs in aggregate (n=4, 2 technical replicates from two biological donors); for M1-1 Log2 Median Normalized / M1-2 Log2 Median Normalized / M2-1 Log2 Median Normalized / M2-2 Log2 Median Normalized: protein abundance ratio ENR+CD versus ENR organoids, LC-MS/MS TMT proteomics; for M1-1 Log2 Median Normalized: sample pair M1-1; for M1-2 Log2 Median Normalized: sample pair M1-2; for M2-1 Log2 Median Normalized: sample pair M2-1; for M2-2 Log2 Median Normalized: sample pair M2-2; for change: up = enriched in ENR+CD, down = enriched in ENR, FDR<0.05 and log fold change cut-off

| Molecule | Average logFC | M1-1 Log2 Median Normalized | M1-2 Log2 Median Normalized | M2-1 Log2 Median Normalized | M2-2 Log2 Median Normalized | change |
| --- | --- | --- | --- | --- | --- | --- |
| Q571E4 (protein, UniProt Q571E4 1-520, looked up, full-length) MAACTAAQQLLLVLSALGLLAAGAPQPPNIVLLLMDDMGWGDLGVNGEPSRETPNLDRMAAEGMLFPSFYSANPLCSPSRAALLTGRLPIRNGFYTTNAHARNAYTPQEIMGGIPNSEHLLPELLKKAGYTNKIVGKWHLGHRPQFHPLKHGFDEWFGSPNCHFGPYDNKAKPNIPVYRDWEMVGRFYEEFPINRKTGEANLTQLYTQEALDFIQTQHARQSPFFLYWAIDATHAPVYASRQFLGTSLRGRYGDAVREIDDSVGKILSLLQNLGISKNTFVFFTSDNGAALISAPNEGGSNGPFLCGKQTTFEGGMREPAIAWWPGHIAAGQVSHQLGSIMDLFTTSLSLAGLKPPSDRVIDGLDLLPTMLKGQMMDRPIFYYRGNTLMAVTLGQYKAHLWTWTNSWEEFTQGTDFCPGQNVSGVTTHTQEEHTELPLIFHLGRDPGERFPLSFHSDEYQDALSRTTQVVQEHQKSLVPGQPQLNVCNQAVMNWAPPGCEKLGKCLTPPESVPEKCFWAH | 1.207 | 1.473 | 0.565 | 1.3465 | 1.206 | up |
| Q5DQR4 (protein, UniProt Q5DQR4 1-1185, looked up, full-length) MKKFNFRKVLDGLTASSPGSGSSSGSNSGGAGSGSVHPGGTAGLPREEIQESLTSDYFQICKTVRHGFPYQPTALAFDPVQKILAIGTRTGAIRILGRPGVDCYCQHESGAAVLQLQFLINEGALVSASSDDTLHLWNLRQKRPAILHSLKFNRERITYCHLPFQSKWLYVGTERGNTHIVNIESFILSGYVIMWNKAIELSTKTHPGPVVHLSDSPRDEGKLLIGYENGTVVFWDLKSKRAELRVYYDEAIHSIDWHHEGKQFMCSHSDGSLTLWNLKSPSRPFQTTVPHGKSQREGRKSESCKPILKVEYKTCRNSEPFIIFSGGLSYDKACRRPSLTIMHGKAITVLEMDHPIVEFLTLCETPYPNEFQEPYAVAVLLEKDLIVVDLTQTNFPIFENPYPMDIHESPVTCTAYFADCPPDLILVLYSIGVKHKKQGYSNKEWPVSGGAWNLGAQTYPEIIITGHADGTIKFWDASAMTLQMLYKLKTSKVFEKQKAGEGKQTCELVEEDPFAVQMIYWCPESRIFCVSGVSAYVIIYKFSRHEVTTEIVSLEVRLQCDVEDIITPEPETSPPFPDLSSQLPPSRSLSGSTNTVSSEGVTKDSIPCLSVKTRPVRMPPGYQADLVIQLVWVDGEPPQQITSLSISSAYGIVAFGNCTGLVVVDFIQKTVLLSMGTIDLYRSSDLYQRQPRSPRKNRQFIADNFCMRGLSNFYPDLTKRIRTSYQSLTELNDSPVPLELERCKSPTSDHVNGHCTSPTSQSCSSGKRLSSADVSKVNRWGPGRPPFRKAQSAACMEISLPVTTEETRENSYNRSRSSSISSIDKDSKEAITALYFMESFARKNDSTVSPCLFVGTSLGMVVLISLNLPSSDEQRFTEPVVVLPSGTFLSLKGAVLTFSCMDRTGSLMQPPYEVWRDPNNTDENEKTWKRKLVMNYSSSSQEMGDHQYTIICSEKQAKVFSLPSQTCLYVHNITETSFILQADVVVMCNSACLACFCANGHIMIMSLPSLRPMLDVNYLPLTDMRIARTFCFTNEGQALYLVSPTEIQRLTYSQEMCDNIQDMLGDLFTPIETPEAQNRGFLKGLFGGSGQTFDREELFGEASAGKASRSLAQHIPGPGSIEGMKGAAGGVMGELTRARIALDERGQRLGELEEKTAGMMTSAEAFSKHAHELMLKYKDKKWYQF | 1.147 | 1.316 | 0.966 | 1.1715 | 1.133 | up |

Source: patent publication US11994512B2, “Single-cell genomic methods to generate ex vivo cell systems that recapitulate in vivo biology with improved fidelity” (Massachusetts Institute of Technology, priority 2018, dated 2024)
